# Measured values published in patent publication CN114591436A (BIOLOGICAL ISLAND LABORATORY; UNIV SCIENCE AND TECHNOLOGY …, dated 2022).
# Biological target: T1, 胃蛋白酶原I (Pepsinogen I) (Homo sapiens (Human), UniProt P0DJD7 63-388, limits assumed)
# T1 construct: also called PGI; PG I
# Assay: ELISA, VHH-pIII in bacterial culture supernatant incubated with PGI antigen; kd derived from binding strength
# T1 sequence (P0DJD7 63-388 limits assumed): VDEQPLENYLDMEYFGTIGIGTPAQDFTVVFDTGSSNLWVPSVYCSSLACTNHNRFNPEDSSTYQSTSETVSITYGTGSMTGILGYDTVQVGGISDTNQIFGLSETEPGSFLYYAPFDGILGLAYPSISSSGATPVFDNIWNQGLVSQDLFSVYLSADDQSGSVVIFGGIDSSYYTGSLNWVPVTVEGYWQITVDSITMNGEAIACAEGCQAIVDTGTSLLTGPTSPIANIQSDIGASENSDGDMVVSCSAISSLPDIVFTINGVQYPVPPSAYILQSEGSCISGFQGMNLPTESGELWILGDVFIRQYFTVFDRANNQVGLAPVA
row,Kd [nM],Binder
1,123,单抗PGI_1H10 (VHH) VHH: QVQLVQSGGGLVQAGGSLRLSCVVSGFNFSSFDRYTMSWVRQIPGKGLEWVSAINGGGIKTAYADSVKGRFTISRDNAKNTVYLQMNDLKPADTAVYYCTFTRWLVRGDYWGQGTQVTVSS
2,1030,单抗PGI_1G9 (VHH) VHH: QVQLVQSGGGSAHLGGSLRLSCAASGFIFSDYYMAWVRQAPGKEREWVSEINTSGRTYYADSVKGRFTISRDNAKNTLYLQMDSLKPEDTAVYYCYVHRSSIFTNREYWGQGTQVTVSS
3,404,单抗PGI_2F1 (VHH) VHH: QVQLVESGGGLVQTGDSLKLSCLASGRTFSSRAMGWFRQAPGKEREFVAAISTSGVLKYYAPSVKGRFTISRDNAKNTMYLEMNSPEPEDTAVYYCAANGPPFGAYWWPTAREYDAWGQGTQVTVSS
